Measurements published in US20250027068.

Molecular target: pooled human IgG

Row | Protein | Enzyme Activity Endpoint Assay (purified): Fab′2 | Enzyme Activity Endpoint Assay (purified): Fc | Enzyme Activity Endpoint Assay (purified): IgG | Enzyme Activity Endpoint Assay (purified): scIgG
1 | PRT-532 (protein) MANQEIRYSEETPKTITSIWTKGVTPPTDFIKNEDVLHAPYIANQGWYDITKTFNGKDDLLCGAATAGNMLHWWFDQNKEEIENYLKKHPEKQKINFNGEQMFDVKEAIDTKDSQTDSKLFEYFKDKAFPYLSTKHLGVMPDLVLDMFINGYYLSLGKHGPTPVKRGTKDPRGGIFDAVFTRGDQSKLLTARHDFKEKTLNEISDLIKQELTEGKALALSHTYANVRINHVINLWGADFNSEGNLEAIYVTDSDSNASIGMKKYYVGVNAAGKVAISAKEIEGDNIGAQVLGLFTLSTGQDIWNQTNLEHHHHHH | 409 ng/µL | 118 ng/µL | 506 ng/µL | 217 ng/µL
2 | PRT-66 (protein) MANQEIRYSEVTPYHVTSVWTKGVTPPANFTQGEDVFHAPYVANQGWYDITKTFNGKDDLLCGAATAGNMLHWWFDQNKDYIKRYLEEHPEKQKINFNGEQMFDVKEAIDTKNHQLDSKLFEYFKEKAFPYLSTKHLGVFPDHVIDMFINGYRLSLTNHGPTPVKEGSKDPRGGIFDAVFTRGDQSKLLTSRHDFKEKNLKEISDLIKKELTEGKALGLSHTYANVRINHVINLWGADFDSNGNLKAIYVTDSDSNASIGMKKYFVGVNSAGKVAISAKEIKEDNIGAQVLGLFTLSTGQDSWNQTN | 49 ng/µL | 115 ng/µL | 15 ng/µL | 13 ng/µL
3 | PRT-629 (protein) MQITSVWTKGVTPLTPEQFRYNNEDVIHAPYLAHQGWYDITKAFDGKDNLLCGAATAGNMLHWWFDQNKEEIEAYLKKYPEKQKIIFNNQELFDLKAAIDTKDSQTNSQLFNYFRDKAFPNLSARQLGVMPDLVLDMFINGYYLNVFKTQSTDVNRPYQDKDKRGGIFDAVFTRGDQTTLLTARHDLKNKGLNDISTIIKQELTEGRALALSHTYANVSISHVINLWGADFNAEGNLEAIYVTDSDANASIGMKKYFVGINAHGHVAISAKKIEGENIGAQVLGLFTLSSGKEIWQKLSLEHHHHHH | 542 ng/µL | 425 ng/µL | 161 ng/µL | 461 ng/µL
4 | PRT-620 (protein) MQITSVWTKGVTPLTPEQFRYNNEDVIHAPYLAHQGWYDITKAFDGKDNLLCGAATAGNMLHWWFDQNKTEIEAYLSKHPEKQKIIFNNQELFDLKAAIDTKDSQTNSQLFNYFRDKAFPNLSARQLGVMPDLVLDMFINGYYLNVFKTQSTDVNRPYQDKDKRGGIFDAVFTRGDQTTLLTARHDLKNKTLKEISDIIKQELTEGRALALSHTYANVSISHVINLWGADFNAEGNLEAIYVTDSDANASIGMKKYFVGINAHGHVAISAKKIEGENIGAQVLGLFTLSSGKDIWQKLSLEHHHHHH | 792 ng/µL | 448 ng/µL | 0 ng/µL | 0 ng/µL
5 | PRT-654 (protein) MQITSVWTKGVTPLTPEQFRYNNEDVIHAPYLAHQGWYDITKAFDGKDNLLCGAATAGNMLHWWFDQNKTEIEAYLSKHPEKQKIIFNNQELFDLKAAIDTKDSQTNSQLFNYFRDKAFPNLSARQLGVMPDLVLDMFINGYYLNVFKTQSTDVNRPYQDKDKRGGIFDAVFTRGDQTTLLTARHDLKNKGLNDISTIIKQELTEGRALALSHTTGNVSYSHVINLWGADFNAEGNLEAIYVTDSDANASIGMKKYFVGINAHGHVAISAKKIEGENVGAQVLGLFTLSSGKDIWQKLSLEHHHHHH | 401 ng/µL | 0 ng/µL | 1170 ng/µL | 11 ng/µL
